US20180057581A1 (MorphoSys, published 2018)
Blank lines part the entries; values can stand above or below the binder they belong to.

Assays:
human M-CSF [1] = target: T1, human M-CSF (human, UniProt P09603 33-255, limits assumed); test: soluble equilibrium titration (SET), Fab, monovalent
T1 construct: also called M-CSF (human); CSF-1
T1 sequence: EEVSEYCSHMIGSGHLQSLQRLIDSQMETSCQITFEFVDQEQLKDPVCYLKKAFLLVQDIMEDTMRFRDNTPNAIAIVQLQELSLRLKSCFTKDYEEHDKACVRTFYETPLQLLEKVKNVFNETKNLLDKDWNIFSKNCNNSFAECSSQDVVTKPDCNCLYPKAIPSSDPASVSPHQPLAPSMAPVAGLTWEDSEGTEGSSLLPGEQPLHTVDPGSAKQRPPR
Description: (§1) The monovalent affinity of the antibodies of the present disclosure was determined by soluble equilibrium titration (Haenel et al. (2005) Anal Biochem 339, 182-4).

human M-CSF [2] = target: T1, human M-CSF; test: ELISA
Description: (§2) BSA was used as a negative control substrate.
(§3) After blocking of plates with 5% skim milk powder in PBS, Fab-containing E. coli lysates, IgG-containing cell culture supernatants or purified IgG or Fab proteins were added. Binding of Fabs or IgGs was detected by F(ab)₂ specific goat anti-human IgG conjugated to alkaline phosphatase (Dianova Cat# 109-055-097; diluted 1:5000) using Attophos fluorescence substrate (Roche, #11681982001). Fluorescence emission at 535 nm was recorded with excitation at 430 nm.

[3] = target: T2, Recombinant cynomolgus monkey sgM-CSF (cynomolgus (Macaca fascicularis), UniProt P09603 33-255 (human entry), limits assumed); test: ELISA
T2 construct: used also where only 'cynomolgus M-CSF' is printed (ELISA result, SET); also called cynomolgus sgM-CSF; cyno sgM-CSF
T2 chain: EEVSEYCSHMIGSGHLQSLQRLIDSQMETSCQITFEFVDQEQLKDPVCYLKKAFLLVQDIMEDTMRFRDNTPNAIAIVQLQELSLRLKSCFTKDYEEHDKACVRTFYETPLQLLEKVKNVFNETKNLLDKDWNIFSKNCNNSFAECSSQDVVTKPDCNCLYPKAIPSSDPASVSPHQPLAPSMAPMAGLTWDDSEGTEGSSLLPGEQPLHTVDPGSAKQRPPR
Description: as §2, §3

[4] = target: T2, Recombinant cynomolgus monkey sgM-CSF; test: soluble equilibrium titration (SET), Fab, monovalent
Description: as §1

Kd (human M-CSF [1]): < 0.002 nM
B1: Satine, Fab (Fab, V domains shown)
VH: EVQLVESGGGLVKPGGSLRLSCAASGFTFSIYAMSWVRQAPGKGLEWVGRIKSNADGGTTEYAAPVKGRFTISRDDSKNTLYLQMNSLKTEDTAVYYCARMRYYSDLYFDPWGQGTLVTVSS
VL: SYELTQPPSVSVSPGQTASITCSGDKLGQKYVSWYQQKPGQSPVLVISQDRKRPSGIPERFSGSNSGNTATLTISGTQAEDEADYYCQTWTHLQWVFGGGTKLTVLG

ELISA fluorescence units (human M-CSF [2]): > 35000 units
ELISA fluorescence units [3]: > 35000 units
B6: Blanche (format not stated) (antibody, V domains shown)
VH: QVQLQQSGPGLVKPSQTLSLTCAISGDSVSSNSAAWNWIRQSPSRGLEWLGRTYYRSKWKHEYAMSVKSRITINPDTSKNQFSLQLNSVTPEDTAVYYCARDRYYYSAFDYWGQGTLVTVSS
VL: DIALTQPASVSGSPGQSITISCTGTSSDVGGYNSVSWYQQHPGKAPKLMIYAVSNRPSGVSNRFSGSKSGNTASLTISGLQAEDEADYYCASYDERFTRVFGGGTKLTVLG

ELISA fluorescence units (human M-CSF [2]): > 35000 units
ELISA fluorescence units [3]: > 35000 units
B8: Laurine (format not stated) (antibody, V domains shown)
VH: QVQLQQSGPGLVKPSQTLSLTCAISGDSVSSNSAAWNWIRQSPSRGLEWLGRTYYRSKWKKEYAQSVKSRITINPDTSKNQFSLQLNSVTPEDTAVYYCARDRYYYSAFDYWGQGTLVTVSS
VL: DIALTQPASVSGSPGQSITISCTGTSSDVGGYNSVSWYQQHPGKAPKLMIYAVSNRPSGVSNRFSGSKSGNTASLTISGLQAEDEADYYCASYDERFTRVFGGGTKLTVLG

Kd (human M-CSF [1]): 0.038 nM
B14: 8.10.3F, Fab (Fab, V domains shown)
VH: EVQLVESGGGLVQPGGSLRLSCAASGFTFSSFSMTWVRQAPGKGLEWVSYISSRSSTISYADSVKGRFTISRDNAKNSLYLQMNSLRDEDTAVYYCARDPLLAGATFFDYWGQGTLVTVSS
VL: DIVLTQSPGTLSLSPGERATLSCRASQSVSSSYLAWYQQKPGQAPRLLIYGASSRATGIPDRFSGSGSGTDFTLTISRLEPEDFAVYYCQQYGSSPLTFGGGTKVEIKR
notes: Prior art antibody; also called 8.10.F3

Kd (human M-CSF [1]): > 1 nM
B15: HeRX1-10G1, Fab (Fab, V domains shown)
VH: QVQLQESGPGLVKPSQTLSLTCTVSDYSITSDYAWNWIRQFPGKGLEWMGYISYSGSTSYNPSLKSRITISRDTSKNQFSLQLNSVTAADTAVYYCASFDYAHAMDYWGQGTTVTVSS
VL: DIVLTQSPAFLSVTPGEKVTFTCQASQSIGTSIHWYQQKTDQAPKLLIKYASESISGIPSRFSGSGSGTDFTLTISSVEAEDAADYYCQQINSWPTTFGGGTKLEIKR
notes: Prior art antibody

The next lines start with the binder.

B2: Romaine (format not stated) (antibody, V domains shown)
VH: EVQLVESGGGLVKPGGSLRLSCAASGFTFSIYAMSWVRQAPGKGLEWVGRIKSNADGGTTEYAAPVKGRFTISRDDSKNTLYLQMNSLKTEDTAVYYCARMRYYSDLYFDPWGQGTLVTVSS
VL: DIELTQPPSVSVSPGQTASITCSGDAIGSKYVHWYQQKPGQAPVLVISKDNKRPSGIPERFSGSNSGNTATLTISGTQAEDEADYYCQTATVSSYWWVFGGGTKLTVLG
ELISA fluorescence units (human M-CSF [2]): > 35000 units
ELISA fluorescence units [3]: > 35000 units

B3: Satine (format not stated) (antibody, V domains shown)
VH: EVQLVESGGGLVKPGGSLRLSCAASGFTFSIYAMSWVRQAPGKGLEWVGRIKSNADGGTTEYAAPVKGRFTISRDDSKNTLYLQMNSLKTEDTAVYYCARMRYYSDLYFDPWGQGTLVTVSS
VL: SYELTQPPSVSVSPGQTASITCSGDKLGQKYVSWYQQKPGQSPVLVISQDRKRPSGIPERFSGSNSGNTATLTISGTQAEDEADYYCQTWTHLQWVFGGGTKLTVLG
ELISA fluorescence units (human M-CSF [2]): > 35000 units
ELISA fluorescence units [3]: > 35000 units

B4: Servane (format not stated) (antibody, V domains shown)
VH: EVQLVESGGGLVKPGGSLRLSCAASGFTFSTYAISWVRQAPGKGLEWVGFIKSKHNSGTTEYAAPVKGRFTISRDDSKNTLYLQMNSLKTEDTAVYYCARMRYYSDLYFDPWGQGTLVTVSS
VL: SYELTQPPSVSVSPGQTASITCSGDKLGQKYVSWYQQKPGQSPVLVISQDRKRPSGIPERFSGSNSGNTATLTISGTQAEDEADYYCQTWTHLQWVFGGGTKLTVLG
ELISA fluorescence units (human M-CSF [2]): > 35000 units
ELISA fluorescence units [3]: > 35000 units

B5: Madeleine (format not stated) (antibody, V domains shown)
VH: QVQLQQSGPGLVKPSQTLSLTCAISGDSVSSNSAAWNWIRQSPSRGLEWLGRTYYRSKWKKEYAQSVKSRITINPDTSKNQFSLQLNSVTPEDTAVYYCARDRYYYSAFDYWGQGTLVTVSS
VL: QSALTQPASVSGSPGQSITISCTGTSSDVGGYNSVSWYQQHPGKAPKLMIYAVSNRPSGVSNRFSGSKSGNTASLTISGLQAEDEADYYCASYDERFTRVFGGGTKLTVLG
ELISA fluorescence units (human M-CSF [2]): > 35000 units
ELISA fluorescence units [3]: > 35000 units

B7: Caline, Fab (Fab, V domains shown)
VH: QVQLQQSGPGLVKPSQTLSLTCAISGDSVSSNSAAWNWIRQSPSRGLEWLGRTYYRSKWKHEYAMSVKSRITINPDTSKNQFSLQLNSVTPEDTAVYYCARDRYYYSAFDYWGQGTLVTVSS
VL: QSALTQPASVSGSPGQSITISCTGTSSDVGGYNSVSWYQQHPGKAPKLMIYAVSNRPSGVSNRFSGSKSGNTASLTISGLQAEDEADYYCASYDERFTRVFGGGTKLTVLG
Kd (human M-CSF [1]): 0.014 nM
Kd [4]: 0.016 nM

B9: Maelle (format not stated) (antibody, V domains shown)
VH: QVQLQQSGPGLVKPSQTLSLTCAISGESVSTSSAAWNWIRQSPSRGLEWLGRTYYRSKWKKEYAQSVKSRITINPDTSKNQFSLQLNSVTPEDTAVYYCARDRYYYSAFDYWGQGTLVTVSS
VL: QSALTQPASVSGSPGQSITISCTGTSSDVGGYNSVSWYQQHPGKAPKLIIYAVSNRPSGVSNRFSGSKSGNTASLTISGLQAEDEADYYCASYDERFTRVFGGGTKLTVLG
ELISA fluorescence units (human M-CSF [2]): > 35000 units
ELISA fluorescence units [3]: > 35000 units

B10: Celine (format not stated) (antibody, V domains shown)
VH: QVQLQQSGPGLVKPSQTLSLTCAISGDSVSTSSAAWNWIRQSPSRGLEWLGRTYYRSKWKHEYAVSVKSRITINPDTSKNQFSLQLNSVTPEDTAVYYCARDRYYYSAFDYWGQGTLVTVSS
VL: QSALTQPASVSGSPGQSITISCTGTSSDVGGYNSVSWYQQHPGKAPKLIIYAVSNRPSGVSNRFSGSKSGNTASLTISGLQAEDEADYYCASYDERFTRVFGGGTKLTVLG
ELISA fluorescence units (human M-CSF [2]): > 35000 units
ELISA fluorescence units [3]: > 35000 units

B11: Blanche, Fab (Fab, V domains shown)
VH: QVQLQQSGPGLVKPSQTLSLTCAISGDSVSSNSAAWNWIRQSPSRGLEWLGRTYYRSKWKHEYAMSVKSRITINPDTSKNQFSLQLNSVTPEDTAVYYCARDRYYYSAFDYWGQGTLVTVSS
VL: DIALTQPASVSGSPGQSITISCTGTSSDVGGYNSVSWYQQHPGKAPKLMIYAVSNRPSGVSNRFSGSKSGNTASLTISGLQAEDEADYYCASYDERFTRVFGGGTKLTVLG
Kd (human M-CSF [1]): 0.096 nM
Kd [4]: 0.13 nM

B12: Caline (format not stated) (antibody, V domains shown)
VH: QVQLQQSGPGLVKPSQTLSLTCAISGDSVSSNSAAWNWIRQSPSRGLEWLGRTYYRSKWKHEYAMSVKSRITINPDTSKNQFSLQLNSVTPEDTAVYYCARDRYYYSAFDYWGQGTLVTVSS
VL: QSALTQPASVSGSPGQSITISCTGTSSDVGGYNSVSWYQQHPGKAPKLMIYAVSNRPSGVSNRFSGSKSGNTASLTISGLQAEDEADYYCASYDERFTRVFGGGTKLTVLG
ELISA fluorescence units (human M-CSF [2]): > 35000 units
ELISA fluorescence units [3]: > 35000 units

B13: Meriem (format not stated) (antibody, V domains shown)
VH: QVQLQQSGPGLVKPSQTLSLTCAISGDSVSTSSAAWNWIRQSPSRGLEWLGRTYYRSKWKKEYAQSVKSRITINPDTSKNQFSLQLNSVTPEDTAVYYCARDRYYYSAFDYWGQGTLVTVSS
VL: QSALTQPASVSGSPGQSITISCTGTSSDVGGYNSVSWYQQHPGKAPKLIIYAVSNRPSGVSNRFSGSKSGNTASLTISGLQAEDEADYYCASYDERFTRVFGGGTKLTVLG
ELISA fluorescence units (human M-CSF [2]): > 35000 units
ELISA fluorescence units [3]: > 35000 units
